Target: Ca^2+-CaM pre-bound to the mammalian Cav1.2 IQ peptide (rat | human, UniProt P0DP29 1-149)
Test: ITC; Ca2+; CaM pre-bound to Cav1.2 IQ

SWQAAIDAARQAKLMGS [mammalian NSCaTE_(Cav1.2) peptide] gave a Kd of 1800 nM.

— paper PMC3634016 (2013)
